One data set has as its system Panc-1. Put plainly: XTT cell survival assay (growth inhibition), Panc-1. In kind it is cell-based, human. The note with it: Panc-1, XTT, up to 25 μM. The method, then:
The cytotoxicity of the peptide-drug conjugates was determined by measuring the mitochondrial enzyme activity, using a commercial XTT assay kit. All samples were prepared in PBS pH 7.4 contained 3% DMSO. The Cells were cultured in micro wells at a concentration 5-10×10^4 cells/well. The cells were washed and fresh cell medium containing different concentrations (up to 25 μM) of the conjugates were added and the cells were incubated for 10 minutes. The cultures were washed and then given a fresh medium and cultured for 48 hours and 72 hours. At the end of the second incubation, XTT reagent was added and the cells were re-incubated for additional 2-4 hours. During that time the absorbencies in the wells were measured with a TECAN Infinite M200 ELISA reader at 480 nm and 680 nm. The difference in the absorbencies measurements at these two wavelengths was used for calculating the percentage Growth Inhibition (GI) in test wells compared to two controls: cells that were exposed to the medium and solvent, and those which were exposed to a solvent-free medium. All the tests were done in triplicate.

The nature of data set [1]: Real time fluorescence microscopy monitoring of CLB release in Panc-1 cells. In kind it is cell-based. The settings on record: human, pH 7.4, Panc-1, 10 min incubation with 10 μM, 37° C., read-out: CLB cleavage half-life τ1/2. The method, then:
(§1) In the next step, the inventors investigated the performance of OCTA-G-XCy-CLB in real time monitoring of drug delivery and drug release into human pancreatic cancer cell line (Panc-1). As a negative control, Chinese hamster ovary cell line (CHO) was employed. Panc-1 contains overexpressed somatostatin receptors SSTR-2 and SSTR-5 while the CHO has the decreased number of these receptors. Panc-1 and CHO were incubated at 37° C. for 10 min with 10 μM OCTA-G-XCy-CLB in PBS pH 7.4 containing 3% DMSO and washed thoroughly with PBS pH 7.4 to remove excess conjugate. Then the fluorescence microscopy images were taken over time (FIGS. 7A, B). The fluorescence intensities for both cell lines gradually increase over time signaling the CLB release. […]
(§2) To monitor drug release, Panc-1 and CHO cell lines were grown in six-well culture plates and then washed with PBS (pH 7.4) two times after that incubated for 10 min with 10 μM OCT(N)-G-XCy-CLB in PBS pH 7.4 containing 3% DMSO. […] The washed cell samples were resuspended in PBS and immediately analyzed the fluorescence changes by using fluorescent microscope. […]
(§3) The band intensities in a representative experiment were quantified by creating region of interest (ROI) around each image and the relative fluorescence intensity of each sample was measured (via the “Measure” function) with Image J software.

A short description of data set [2]: Time-dependent absorption/fluorescence CLB cleavage profiles of XCy-CLB and OCTA-G-XCy-CLB in PB and cell medium. It is filed as in vitro ADME. The note with it: read-out: CLB release half-life τ1/2 (converted). The method, then: To estimate the rate of the CLB release, the time-dependent absorption and fluorescence spectra of XCy-CLB and OCTA-G-XCy-CLB were measured in PB and CM (see, FIGS. 5A-H). With respect to time, the absorption band at about 600 nm decreases, a new band at about 680 nm increases and a fluorescence band subsequently appears at ˜708 nm (λex=650 nm).
Based of the time-dependent absorption and emission spectra, corresponding drug cleavage profiles were obtained (see, FIGS. 6A-B) and the drug release rates were quantified by half-lives (τ1/2). The cleavage profiles and half-lives obtained spectrophotometrically and spectrofluorometrically almost coincide. […] The release of CLB from OCTA-G-XCy-CLB in CM (τ1/2˜25 min) is […] faster than that in PB τ1/2 ˜2.5 h. Thus, the drug release for both XCy-CLB and OCTA-G-XCy-CLB in CM is much faster compared to PB. The obtained half-lives of the ester bond cleavage in these media were found in good agreement with some reported data. Linkage of OCTA to the conjugate accelerates the drug release by factor of 6 in PB and 1.3 in CM.
(§4) Absorption spectra were recorded on a Jasco V-730 UV-Vis spectrophotometer and the fluorescence spectra were measured on Edinburgh FS5 spectrofluorometer. The absorption and fluorescence spectra were measured in 1-cm quartz cells at about 0.5 μM dye concentrations in PB 10 mmol buffer pH 7.4 at 25° C. and cell medium pH 7.4. Excitation wavelength was 650 nm. All the solutions were filtered in PVDF 0.45 μm filter before taking spectrum.

A short description of data set [3]: Absorption and emission spectra of XCy, XCy-CLB and OCTA-G-XCy-CLB in PB and CM. It is filed as physicochemical. The note with it: for λmaxFl: λex 650 nm. As for the experimental part:
The absorption and emission spectra of XCy, XCy-CLB and OCTA-G-XCy-CLB were investigated in two different conditions, 10 mM phosphate buffer pH 7.4 containing 10% methanol (PB) and cell medium pH 7.4 containing 10% methanol (CM) (see, Table 1 below). CM was taken as a model of normal physiological conditions during drug delivery in the experiments with cells. A RPMI-1640 standard cell medium that contains 50 mL fetal bovine serum (FBS), 5 mL penicillin (10,000 U/mL), 5 mL streptomycin (10 mg/mL), 5 mL of 200 mM glutamine, and 5.3 mg/L phenol red indicator was utilized. FBS contains enzyme aspartate-aminotransferase that facilitates the ester bond cleavage.
as §4

Data set [4] can be described thus: Real time fluorescence microscopy monitoring of CLB release in CHO cells (negative control). The note with it: hamster, pH 7.4, 10 min incubation with 10 μM, 37° C., read-out: CLB cleavage half-life τ1/2 (converted). In kind it is cell-based, Chinese hamster. As for the experimental part: as §1, §2, §3
The mark [5] stands for this setting: CM: cell medium pH 7.4 containing 10% methanol.
[6] abbreviates: PB: 10 mM phosphate buffer pH 7.4 containing 10% methanol.

Where two headings read alike, the source gives them in different places.

On to `C[C@@H](O)[C@H](NC(=O)[C@@H]1CSSC[C@H](NC(=O)[C@H](Cc2ccccc2)NC(=O)CCCNC(=O)CCCCC[N+]2=C(/C=C/C3=C4Oc5cc(OC(=O)CCCc6ccc(N(CCCl)CCCl)cc6)ccc5C=C4CCC3)C(C)(C)c3ccccc32)C(=O)N[C@@H](Cc2ccccc2)C(=O)N[C@@H](Cc2c[nH]c3ccccc23)C(=O)N[C@@H](CCCCN)C(=O)N[C@@H]([C@@H](C)O)C(=O)N1)C(N)=O` [OCTA-G-XCy-CLB], for which the “Growth Inhibition (GI) / toxicity” value in the data set on Panc-1 was “significantly elevated growth inhibition compared to CHO”. The figures for the half-life at 10 μM in data set [1] and in data set [4] were about 0.417 h and about 2.5 h, respectively. Besides, the half-life at 0.5 μM is about 0.417 h in data set [2] (bovine, cell medium (contains esterase), in CM (cell medium pH 7.4, esterase present)) and about 2.5 h in data set [2] (phosphate buffer (PB), in PB pH 7.4). The λmaxAbs in data set [3] (setting [5]) and in data set [3] (setting [6]) was 604 nm throughout. For the same compound, the λmaxFl entry in data set [3] (setting [5]) and in data set [3] (setting [6]) was “No fl” in each case. Moreover, the absorption maximum in data set [3] (in PB and CM) is recorded as about 600 nm. For the same compound, in data set [3] (in PB and CM), the fluorescence entry is reported as “not detectable”.
